{"source": "patent US20160002357A1", "about": "(Pfizer, published 2016)", "binders": {"B1": {"name": "LP-DART #5 (bispecific antibody)", "chain 1": "QAVVTQEPSLTVSPGGTVTLTCRSSTGAVTTSNYANWVQQKPGQAPRGLIGGTNKRAPWTPARFSGSLLGGKAALTITGAQAEDEADYYCALWYSNLWVFGGGTKLTVLGGGGSGGGGEVQLVQSGAEVKKPGASVKVSCKASGYTFTSYGISWVRQAPGQGLEWMGWISAYNGNTNYAQKLQGRVTMTTDTSTSTAYMELRSLRSDDTAVYYCATIDTASAFDIWGQGTMVTVSSGCPPCPAPEAAGAPSVFLFPPKPKDTLMISRTPEVTCVVVDVSHEDPEVKFNWYVDGVEVHNAKTKPREEQYNSTYRVVSVLTVLHQDWLNGKEYKCKVSNKALPAPIEKTISKAKGQPREPQVYTLPPCREEMTKNQVSLSCAVKGFYPSDIAVEWESNGQPENNYKTTPPVLDSDGSFFLVSKLTVDKSRWQQGNVFSCSVMHEALHNHYTQKSLSLSPG", "chain 2": "QSVLTQPPSVSAAPGQKVTISCSGSSSNIGNNYVSWYQQLPGTAPKLLIYDNNKRPSGIPDRFSGSKSGTSATLGITGLQTGDEADYYCGTWDSSLSAVVFGGGTKLTVLGGGSGGGGEVQLVESGGGLVQPGGSLRLSCAASGFTFNTYAMNWVRQAPGKGLEWVARIRSKYNNYATYYADSVKDRFTISRDDSKNSLYLQMNSLKTEDTAVYYCVRHGNFGNSYVSWFAYWGQGTLVTVSSGCPPCPAPEAAGAPSVFLFPPKPKDTLMISRTPEVTCVVVDVSHEDPEVKFNWYVDGVEVHNAKTKPREEQYNSTYRVVSVLTVLHQDWLNGKEYKCKVSNKALPAPIEKTISKAKGQPREPQVCTLPPSREEMTKNQVSLWCLVKGFYPSDIAVEWESNGQPENNYKTTPPVLDSDGSFFLYSKLTVDKSRWQQGNVFSCSVMHEALHNHYTQKSLSLSPG", "notes": "also called P-cadherin LP-DART construct #5 (P-CAD 35, CD3-2)"}, "B2": {"name": "LP-DART #4 (bispecific antibody)", "chain 1": "QAVVTQEPSLTVSPGGTVTLTCRSSTGAVTTSNYANWVQQKPGQAPRGLIGGTNKRAPWTPARFSGSLLGGKAALTITGAQAEDEADYYCALWYSNLWVFGGGTKLTVLGGGGSGGGGEVQLVQSGAEVKKPGASVKVSCKASGYTFTSYGISWVRQAPGQGLEWMGWISAYNGNTNYAQKLQGRVTMTTDTSTSTAYMELRSLRSDDTAVYYCATIDTASAFDIWGQGTMVTVSSGGTGGGEPKSSDKTHTCPPCPAPEAAGAPSVFLFPPKPKDTLMISRTPEVTCVVVDVSHEDPEVKFNWYVDGVEVHNAKTKPREEQYNSTYRVVSVLTVLHQDWLNGKEYKCKVSNKALPAPIEKTISKAKGQPREPQVCTLPPSREEMTKNQVSLWCLVKGFYPSDIAVEWESNGQPENNYKTTPPVLDSDGSFFLYSKLTVDKSRWQQGNVFSCSVMHEALHNHYTQKSLSLSPG", "chain 2": "QSVLTQPPSVSAAPGQKVTISCSGSSSNIGNNYVSWYQQLPGTAPKLLIYDNNKRPSGIPDRFSGSKSGTSATLGITGLQTGDEADYYCGTWDSSLSAVVFGGGTKLTVLGGGSGGGGEVQLVESGGGLVQPGGSLRLSCAASGFTFNTYAMNWVRQAPGKGLEWVARIRSKYNNYATYYADSVKDRFTISRDDSKNSLYLQMNSLKTEDTAVYYCVRHGNFGNSYVSWFAYWGQGTLVTVSSGGTGGGEPKSSDKTHTCPPCPAPEAAGAPSVFLFPPKPKDTLMISRTPEVTCVVVDVSHEDPEVKFNWYVDGVEVHNAKTKPREEQYNSTYRVVSVLTVLHQDWLNGKEYKCKVSNKALPAPIEKTISKAKGQPREPQVYTLPPCREEMTKNQVSLSCAVKGFYPSDIAVEWESNGQPENNYKTTPPVLDSDGSFFLVSKLTVDKSRWQQGNVFSCSVMHEALHNHYTQKSLSLSPG", "notes": "also called P-cadherin LP-DART construct #4 (P-CAD 35, CD3-2)"}, "B3": {"name": "20 EK-DART (P-CAD 20 x CD3-2) (bispecific antibody)", "chain 1": "AIQMTQSPSSLSASVGDRVTITCRASQSIGKYLNWYQQIPGKAPKLLIYTASTLQTGVPSRFSGSGSGTDFTLTIVSLQPEDFATYYCQQSFNTPRTFGQGTKVEIKGGGSGGGGEVQLVESGGGLVQPGGSLRLSCAASGFTFNTYAMNWVRQAPGKGLEWVARIRSKYNNYATYYADSVKDRFTISRDDSKNSLYLQMNSLKTEDTAVYYCVRHGNFGNSYVSWFAYWGQGTLVTVSSGGCGGGKVAALKEKVAALKEKVAALKEKVAALKE", "chain 2": "QAVVTQEPSLTVSPGGTVTLTCRSSTGAVTTSNYANWVQQKPGQAPRGLIGGTNKRAPWTPARFSGSLLGGKAALTITGAQAEDEADYYCALWYSNLWVFGGGTKLTVLGGGGSGGGGEVQLVQSGAEVKKPGASVKVSCKASGYTFTGYYMHWVRQAPGQGLEWMGRINPNSGGTNYAQKFQGRVTMTRDTSISTAYMELSRLRSDDTAVYYCAKGSGSGAFDIWGQGTMVTVSSGGCGGGEVAALEKEVAALEKEVAALEKEVAALEK"}, "B4": {"name": "33 EK-DART (P-CAD 33 x CD3-2) (bispecific antibody)", "chain 1": "QSVLTQPPSVSAAPGQKVTISCSGSSSNIGNNYVSWYQQLPGTAPKLLIYDNNKRPSGIPDRFSGSKSGTSATLGITGLQTGDEADYYCGTWDSSLSAYVFGTGTKVTVLGGGSGGGGEVQLVESGGGLVQPGGSLRLSCAASGFTFNTYAMNWVRQAPGKGLEWVARIRSKYNNYATYYADSVKDRFTISRDDSKNSLYLQMNSLKTEDTAVYYCVRHGNFGNSYVSWFAYWGQGTLVTVSSGGCGGGKVAALKEKVAALKEKVAALKEKVAALKE", "chain 2": "QAVVTQEPSLTVSPGGTVTLTCRSSTGAVTTSNYANWVQQKPGQAPRGLIGGTNKRAPWTPARFSGSLLGGKAALTITGAQAEDEADYYCALWYSNLWVFGGGTKLTVLGGGGSGGGGQMQLVQSGAEVKKPGASVKVSCKASGYTFTSYGISWVRQAPGQGLEWMGWISAYNGNTNYAQKLQGRVTMTTDTSTSTAYMELRSLRSDDTAVYYCALIGSGVAFDIWGQGTMVTVSSGGCGGGEVAALEKEVAALEKEVAALEKEVAALEK"}, "B5": {"name": "35 EK-DART (P-CAD 35 x CD3-2) (bispecific antibody)", "chain 1": "B4 chain 1 with Y99V, T103G, V107L", "chain 2": "B4 chain 2 with Q119E, M120V, L216T, G218D, S219T, G220A, V221S"}, "B6": {"name": "34 EK-DART (P-CAD 34 x CD3-2) (bispecific antibody)", "chain 1": "B4 chain 1 with L4V, Y99W, T103G, V107L", "chain 2": "B4 chain 2 with Q119E, M120V, L216T, G218D, S219T, G220A, V221S"}, "B7": {"name": "179 EK-DART (P-CAD 179 x CD3-2) (bispecific antibody)", "chain 1": "B4 chain 1 with S26R, N52S, A98S, Y99W, T103G, V107L", "chain 2": "B4 chain 2 with Q119E, M120V, L216T, G218D, S219T, G220A, V221N"}, "B8": {"name": "180 EK-DART (P-CAD 180 x CD3-2) (bispecific antibody)", "chain 1": "B4 chain 1 with L4V", "chain 2": "B4 chain 2 with Q119E, M120V, L216T, G218D, S219T, G220A, V221N"}}, "note": "Residue numbers refer to the chain shown, from its start.", "data": [{"target": "T1, cynomolgus monkey P-cadherin ECD (cynomolgus monkey)", "T1 construct": "extracellular domain; also called cyno P-cadherin ECD; Cyno P-cadherin", "experiment": "SPR", "units": {"Kd": "nM"}, "values": [{"binder": "B1", "Kd": 62.1}, {"binder": "B2", "Kd": 128}]}, {"target": "human P-cadherin expressed on the cell surface (human, UniProt P22223 108-829)", "sequence (P22223 108-829)": "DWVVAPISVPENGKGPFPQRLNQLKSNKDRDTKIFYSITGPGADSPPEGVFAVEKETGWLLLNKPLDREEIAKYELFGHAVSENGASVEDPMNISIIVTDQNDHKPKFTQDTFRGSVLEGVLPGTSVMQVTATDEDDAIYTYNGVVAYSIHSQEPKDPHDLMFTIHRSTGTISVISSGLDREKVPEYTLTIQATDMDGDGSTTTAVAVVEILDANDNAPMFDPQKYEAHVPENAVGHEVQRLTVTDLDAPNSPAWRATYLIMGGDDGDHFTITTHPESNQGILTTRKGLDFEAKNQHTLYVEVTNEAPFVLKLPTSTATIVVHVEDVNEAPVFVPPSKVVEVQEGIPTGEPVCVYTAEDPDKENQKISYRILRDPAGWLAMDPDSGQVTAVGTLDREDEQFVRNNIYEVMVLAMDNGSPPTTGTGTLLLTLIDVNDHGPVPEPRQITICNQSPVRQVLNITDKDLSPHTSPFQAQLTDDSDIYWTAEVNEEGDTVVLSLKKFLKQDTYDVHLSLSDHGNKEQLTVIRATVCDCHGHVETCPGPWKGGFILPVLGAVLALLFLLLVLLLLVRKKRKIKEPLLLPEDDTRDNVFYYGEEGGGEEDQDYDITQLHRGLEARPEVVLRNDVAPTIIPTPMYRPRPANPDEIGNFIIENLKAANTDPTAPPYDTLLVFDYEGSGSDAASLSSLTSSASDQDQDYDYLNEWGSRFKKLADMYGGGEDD", "experiment": "cell-based or functional assay", "units": {"T cell Cytotoxicity": "nM"}, "values": [{"binder": "B1", "T cell Cytotoxicity": 0.74}, {"binder": "B2", "T cell Cytotoxicity": 2.45}]}, {"target": "T2, human P-cadherin, cell surface expressed (human, UniProt P22223 108-829)", "T2 sequence (P22223 108-829)": "as above", "experiment": "cell-based or functional assay", "units": {"T cell directed cytotoxicity EC50, CHO-CDh3 (24 h), LDH release, human PBMC E:T 30:1": "nM", "T cell directed cytotoxicity EC50, H1650 (24 h), LDH release, human PBMC E:T 30:1": "nM", "T cell directed cytotoxicity EC50, H1650 (40 h), LDH release, human PBMC E:T 30:1": "nM"}, "values": [{"binder": "B3", "T cell directed cytotoxicity EC50, CHO-CDh3 (24 h), LDH release, human PBMC E:T 30:1": 169, "T cell directed cytotoxicity EC50, H1650 (24 h), LDH release, human PBMC E:T 30:1": 36.4}, {"binder": "B4", "T cell directed cytotoxicity EC50, CHO-CDh3 (24 h), LDH release, human PBMC E:T 30:1": 0.309, "T cell directed cytotoxicity EC50, H1650 (24 h), LDH release, human PBMC E:T 30:1": 4.1, "T cell directed cytotoxicity EC50, H1650 (40 h), LDH release, human PBMC E:T 30:1": 1.12}, {"binder": "B5", "T cell directed cytotoxicity EC50, CHO-CDh3 (24 h), LDH release, human PBMC E:T 30:1": 0.0398, "T cell directed cytotoxicity EC50, H1650 (24 h), LDH release, human PBMC E:T 30:1": 0.501, "T cell directed cytotoxicity EC50, H1650 (40 h), LDH release, human PBMC E:T 30:1": 0.0532}, {"binder": "B6", "T cell directed cytotoxicity EC50, CHO-CDh3 (24 h), LDH release, human PBMC E:T 30:1": 0.737, "T cell directed cytotoxicity EC50, H1650 (24 h), LDH release, human PBMC E:T 30:1": 5.6, "T cell directed cytotoxicity EC50, H1650 (40 h), LDH release, human PBMC E:T 30:1": 1.6}]}, {"target": "T2, human P-cadherin, cell surface expressed", "experiment": "cell-based or functional assay", "remark": "another data set of the same source", "units": {"T cell directed cytotoxicity EC50, H1650 LDH 24 hr 30:1 D41183": "nM", "T cell directed cytotoxicity EC50, HCT116 Luc 48 hr 10:1 D43905": "nM"}, "values": [{"binder": "B5", "T cell directed cytotoxicity EC50, H1650 LDH 24 hr 30:1 D41183": 0.102, "T cell directed cytotoxicity EC50, HCT116 Luc 48 hr 10:1 D43905": 0.205}, {"binder": "B7", "T cell directed cytotoxicity EC50, H1650 LDH 24 hr 30:1 D41183": 0.0178, "T cell directed cytotoxicity EC50, HCT116 Luc 48 hr 10:1 D43905": 0.0432}, {"binder": "B8", "T cell directed cytotoxicity EC50, H1650 LDH 24 hr 30:1 D41183": 0.0016, "T cell directed cytotoxicity EC50, HCT116 Luc 48 hr 10:1 D43905": 0.0018}]}]}
